# The supplement of paper PMC10567573
# ± gives the standard deviation.
# Assay: protein stability index of a GFP-peptide fusion (GPS, HEK-293T) (PSI 1-6); higher = more stable
# Conditions: c terminus: a fixed tail appended
# 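Also: 24-mer peptide tiles fused after GFP, lentivirally expressed, FACS-sorted into six equal bins by GFP/DsRed ratio, decoded by Illumina sequencing, PSI is the read-weighted mean bin number.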
Sequence,protein stability index (treatment: DMSO),"protein stability index (treatment: MLN4924 1 uM, 8 h)"
LYIFATCLGLSYDGLLGDNQIMPK [MAGEA3],2.92 ± 0.34,2.78 ± 0.52
MARLQEEHGDQLLSIRCQHQEQVE [MTUS2],4.85 ± 0.38,4.96 ± 0.11
MASFPPRVNEKEIVRLRTIGELLA [WSB1],2.18 ± 0.3,2.14 ± 0.13
MATTVTCTRFTDEYQLYEDIGKGA [CAMK2B],3.25 ± 0.2,3.31 ± 0.18
MCLFLQSLRQKQPERLCSGPGIVG [GMPPB],2.27 ± 0.41,2.17 ± 0.46
MCQRLRSMQYNGSYFDRGAKGGSR [DFFB],3.26 ± 0.26,3.48 ± 0.42
MCRLEELGLAGRCLTLTPRPATEA [HDAC6],2.21 ± 0.22,2.27 ± 0.095
MDHIRIFQEQVEKLKALHVDSAEY [NR2F2],3.07 ± 0.44,3.2 ± 0.36
MDSDFSHAFQKELTCVICLNYLVD [TRIM43],2.6 ± 0.39,2.53 ± 0.44
MDVGETAMVTADSKYCYGPQGSRS [FKBP8],4.36 ± 0.31,4.51 ± 0.23
MEAAREGHEEMVALLLGQGANINA [ANKRD17],4.16 ± 0.17,4.15 ± 0.24
MESSKPGPVQVVLVQKDQHSFELD [ATL3],4.35 ± 0.19,4.04 ± 0.33
MGFAAKAMKSVHENMDLNKIDDLM [CHMP4C],3.59 ± 0.32,3.48 ± 0.3
MIGLYEPELGSGAGPAGTGTPSLL [EMID1],3.89 ± 0.53,3.65 ± 0.71
MKCLKVGMLKEGVRLDRVRGGRQK [ESRRG],3.5 ± 0.092,3.73 ± 0.21
MKDISNLEENDETRFILSKVPSEA [SLC6A17],4.91 ± 0.24,4.94 ± 0.15
MKQGGAALEGSALANGRALSAGSP [DLX1],4.67 ± 0.29,4.72 ± 0.13
MKSEEQKIKDARKGPLVPFPNQKS [KMT5A],5.01 ± 0.18,5.23 ± 0.19
MMKAKGDLEMKEEEEISETGELVG [ZBED2],5.59 ± 0.27,5.35 ± 0.26
MNLDIVDLLKKAKFHHSDCLSTWL [RHOBTB3],2.53 ± 0.4,2.44 ± 0.63
MPPKKQAQAGGSKKAEQKKKEKII [ZC3H15],4.63 ± 0.18,5.1 ± 0.39
MPSGSEEKILRELSEEEEDEEEEE [KCNA4],5.53 ± 0.59,5.69 ± 0.14

Sequence,protein stability index (treatment: DMSO),"protein stability index (treatment: MLN4924 1 uM, 8 h)"
MQHSFPEPGRLYLDLILAILALEL [TMEM192],2.62 ± 0.41,2.45 ± 0.36
MQVFAKLGTDPTHVMGLYPDLLPT [VPS39],2.16 ± 0.27,2.35 ± 0.25
MSFTTRSTFSTNYRSLGSVQAPSY [KRT18],2.37 ± 0.29,2.38 ± 0.3
MSLVLHGNNLLVFGGTGIPFGESN [KLHDC10],2.74 ± 0.69,2.81 ± 0.52
MTTLTHRARRTEISKNSEKKMESE [GOLPH3L],5 ± 0.55,5.07 ± 0.18
MTVPATAIYFTAYDQLKAFLCGRA [SLC25A39],2.35 ± 0.51,2.23 ± 0.33
MVATANNRQTFVNSAIRFLRKYSF [CHIT1],2.65 ± 0.19,2.63 ± 0.14
MVIHIPEEPRPSRPRYKADVPDLQ [KCNK9],3.02 ± 0.21,3.24 ± 0.18
MVIQLLAIMCVSCICWSPFLVTMA [PTGFR],3.11 ± 0.45,3.22 ± 0.36
MVSSVLCRCVASPPPDAAATAASS [SLC25A25],2.94 ± 0.24,2.92 ± 0.22
MYFSSLFPYVVLACFLVRGLLLRG [SLC6A17],2.9 ± 0.65,2.65 ± 0.72
MYQELMEMCHKPDVELLQDLGDIV [TRIM43],2.57 ± 0.28,2.71 ± 0.45
NALTLFNLAQDPQCKEWQVLMCGF [TMEM120A],2.26 ± 0.38,2.06 ± 0.16
NARRKLKGAILTTMLATRNFSAAK [CAMK2B],3.08 ± 0.33,3.15 ± 0.36
NARRRLKKENKMTWAPKNKGGEER [IRX6],4.51 ± 0.27,4.63 ± 0.098
NDFVQVDPGQVGLINSNVSMVDLT [FAN1],3.9 ± 0.39,4.24 ± 0.15
NDLQDLREQILRVKDTDDVPMILV [RAP1B],2.82 ± 0.3,3.06 ± 0.21
NESRYMIYEFWENSSVWNSHLQTN [NECAB1],2.26 ± 0.26,2.24 ± 0.23
NEYAYLPLHVHEEEGILVAVGQDC [DCAF4],3.75 ± 0.18,3.91 ± 0.12
NEYRKLHPVLHKEEKQHLERLNKE [TRIM43],4.9 ± 0.21,4.87 ± 0.081
NFRVGKKIGCGNFGELRLGKNLYT [CSNK1G1],2.24 ± 0.4,2.11 ± 0.15
NHHSPGGSSDASGSYSSTMNGHQN [ESRRG],4.86 ± 0.23,5.05 ± 0.17
